Patent US20200317768A1 (published 2020)

T1: cynomolgus monkey FcγRIIa1 extracellular domain, C-terminal His-tag (cynomolgus monkey)
T1 construct: also called cyno FcγRIIa1; cynoFcgRIIa1; not shown: His-tag added to C-terminus
T1 chain: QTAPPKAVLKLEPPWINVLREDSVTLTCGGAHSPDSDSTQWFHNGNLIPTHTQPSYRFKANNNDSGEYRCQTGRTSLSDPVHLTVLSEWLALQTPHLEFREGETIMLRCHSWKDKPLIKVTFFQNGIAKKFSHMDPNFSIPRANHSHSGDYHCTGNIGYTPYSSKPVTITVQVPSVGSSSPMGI

T2: cynomolgus monkey FcγRIIa2 extracellular domain, C-terminal His-tag (cynomolgus monkey)
T2 construct: also called cyno FcγRIIa2; cynoFcgRIIa2; not shown: His-tag added to C-terminus
T2 chain: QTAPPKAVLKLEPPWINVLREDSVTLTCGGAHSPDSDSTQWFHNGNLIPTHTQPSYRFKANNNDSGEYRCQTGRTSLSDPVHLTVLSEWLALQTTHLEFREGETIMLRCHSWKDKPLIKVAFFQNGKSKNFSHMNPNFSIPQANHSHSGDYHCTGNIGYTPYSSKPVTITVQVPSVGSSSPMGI

T3: cynomolgus monkey FcγRIIa3 extracellular domain, C-terminal His-tag (cynomolgus monkey)
T3 construct: also called cyno FcγRIIa3; cynoFcgRIIa3; not shown: His-tag added to C-terminus
T3 chain: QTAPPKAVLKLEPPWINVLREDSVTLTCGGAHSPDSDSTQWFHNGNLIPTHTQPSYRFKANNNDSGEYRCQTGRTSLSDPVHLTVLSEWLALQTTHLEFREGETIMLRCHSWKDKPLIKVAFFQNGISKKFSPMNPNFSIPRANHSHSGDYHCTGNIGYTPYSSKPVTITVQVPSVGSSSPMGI

T4: cynomolgus monkey FcγRIIb extracellular domain, C-terminal His-tag (cynomolgus monkey)
T4 construct: also called cyno FcγRIIb; cynoFcγRIIb; not shown: His-tag added to C-terminus
T4 chain: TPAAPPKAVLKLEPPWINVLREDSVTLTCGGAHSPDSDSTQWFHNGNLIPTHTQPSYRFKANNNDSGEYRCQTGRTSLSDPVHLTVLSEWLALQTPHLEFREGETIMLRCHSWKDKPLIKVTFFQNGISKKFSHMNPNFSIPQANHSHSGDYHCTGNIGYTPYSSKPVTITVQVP

T5: human FcγRIIaH extracellular domain, C-terminal His-tag (human, UniProt P12318 34-217)
T5 construct: also called human FcγRIIa (type H); FcgRIIaH; not shown: His-tag added to C-terminus
T5 sequence: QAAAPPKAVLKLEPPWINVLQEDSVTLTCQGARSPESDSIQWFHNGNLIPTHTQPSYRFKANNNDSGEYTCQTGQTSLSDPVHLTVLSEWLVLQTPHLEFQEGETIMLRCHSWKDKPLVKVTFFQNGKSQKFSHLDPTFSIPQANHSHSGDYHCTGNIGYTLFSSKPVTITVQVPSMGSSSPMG

T6: human FcγRIIaR extracellular domain, C-terminal His-tag (human, UniProt P12318 34-217)
T6 construct: also called human FcγRIIa (type R); FcgRIIaR; not shown: His-tag added to C-terminus
T6 chain: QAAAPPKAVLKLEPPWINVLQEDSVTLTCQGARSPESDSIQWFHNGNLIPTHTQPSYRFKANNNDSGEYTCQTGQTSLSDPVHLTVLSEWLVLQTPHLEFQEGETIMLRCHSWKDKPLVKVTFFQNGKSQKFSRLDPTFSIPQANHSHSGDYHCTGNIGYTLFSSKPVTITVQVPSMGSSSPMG

T7: human FcγRIIb extracellular domain, C-terminal His-tag (human, UniProt P31994 43-217)
T7 construct: also called humanFcgRIIb; not shown: His-tag added to C-terminus
T7 sequence: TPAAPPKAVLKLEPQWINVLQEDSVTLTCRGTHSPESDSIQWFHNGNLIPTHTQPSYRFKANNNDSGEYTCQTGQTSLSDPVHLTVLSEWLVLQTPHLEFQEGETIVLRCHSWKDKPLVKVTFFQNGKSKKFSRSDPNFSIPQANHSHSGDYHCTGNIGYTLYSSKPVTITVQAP


How the values were obtained:
[1] = molecular target: T1, cynomolgus monkey FcγRIIa1 …; assay: SPR (BIACORE), antibody captured, FcγR analyte
Description: (§1) The kinetic analysis of interactions between these antibodies and FcγR was carried out using BIACORE® T200 or BIACORE® 4000 (GE Healthcare). HBS-EP+ (GE Healthcare) was used as the running buffer, and the measurement temperature was set to 25° C. A chip produced by immobilizing Protein A. Protein A/G or mouse anti-human IgG kappa light chain (BD Biosciences) onto a Series S Sensor Chip CM4 or CM5 (GE Healthcare) by the amine-coupling method was used. […] After the measurement, the antibody captured on the chip was washed off by allowing reaction with 10 mM glycine-HCl, pH1.5 and 25 mM NaOH so that the chip was regenerated and used repeatedly. The sensorgrams obtained as measurement results were analyzed by the 1:1 Langmuir binding model using the BIACORE® Evaluation Software to calculate the binding rate constant ka (L/mol/s) and dissociation rate constant kd (l/s), and the dissociation constant KD (mol/L) was calculated from these values. […] Regarding such interactions, KD values were calculated using the following 1:1 binding model described in BIACORE® T100 Software Handbook BR1006-48 Edition AE.

[2] = molecular target: T2, cynomolgus monkey FcγRIIa2 …; assay: SPR (BIACORE), antibody captured, FcγR analyte
Description: as §1

[3] = molecular target: T3, cynomolgus monkey FcγRIIa3 …; assay: SPR (BIACORE), antibody captured, FcγR analyte
Description: as §1

[4] = molecular target: T4, cynomolgus monkey FcγRIIb extracellular …; assay: SPR (BIACORE), antibody captured, FcγR analyte
Description: as §1

[5] = molecular target: T8, cynomolgus monkey FcγRIIIaS extracellular domain, C-terminal His-tag (cynomolgus monkey, UniProt A3RFZ7 21-206 (rhesus entry)); assay: SPR (BIACORE), antibody captured, FcγR analyte
T8 construct: also called cyno FcγRIIIaS; cynoFcγRIIIaS; not shown: His-tag added to C-terminus
T8 sequence (A3RFZ7 21-206): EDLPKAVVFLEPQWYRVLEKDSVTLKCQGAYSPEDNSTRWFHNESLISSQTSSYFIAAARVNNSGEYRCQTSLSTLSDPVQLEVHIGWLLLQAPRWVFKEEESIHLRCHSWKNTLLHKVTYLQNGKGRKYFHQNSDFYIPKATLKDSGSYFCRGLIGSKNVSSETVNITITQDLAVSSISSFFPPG
Description: as §1

[6] = molecular target: T5, human FcγRIIaH extracellular domain, …; assay: SPR (BIACORE), antibody captured, FcγR analyte
Description: as §1

[7] = molecular target: T6, human FcγRIIaR extracellular domain, …; assay: SPR (BIACORE), antibody captured, FcγR analyte
Description: as §1

[8] = molecular target: T7, human FcγRIIb extracellular domain, …; assay: SPR (BIACORE), antibody captured, FcγR analyte
Description: as §1

[9] = molecular target: T9, human FcγRIIIaV extracellular domain, C-terminal His-tag (human, UniProt P08637 17-208); assay: SPR (BIACORE), antibody captured, FcγR analyte
T9 construct: also called FcgRIIIaV; not shown: His-tag added to C-terminus
T9 sequence (P08637 17-208 F176V): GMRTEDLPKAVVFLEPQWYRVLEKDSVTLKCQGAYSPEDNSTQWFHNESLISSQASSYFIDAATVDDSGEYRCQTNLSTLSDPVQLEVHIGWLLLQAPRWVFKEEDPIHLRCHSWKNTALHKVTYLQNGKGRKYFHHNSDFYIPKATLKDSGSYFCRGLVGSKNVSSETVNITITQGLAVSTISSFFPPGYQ
Description: as §1

[10] = molecular target: T1, cynomolgus monkey FcγRIIa1 …; assay: SPR (BIACORE); KD of parent SG1 / KD of variant;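 further: relative to parent M103205H795-SG1 carrying the SG1 human heavy chain constant region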
Description: as §1

[11] = molecular target: T2, cynomolgus monkey FcγRIIa2 …; assay: SPR (BIACORE); KD of parent SG1 / KD of variant;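 further: relative to parent M103205H795-SG1 carrying the SG1 human heavy chain constant region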
Description: as §1

[12] = molecular target: T3, cynomolgus monkey FcγRIIa3 …; assay: SPR (BIACORE); KD of parent SG1 / KD of variant;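 further: relative to parent M103205H795-SG1 carrying the SG1 human heavy chain constant region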
Description: as §1

[13] = molecular target: T4, cynomolgus monkey FcγRIIb extracellular …; assay: SPR (BIACORE); KD of parent SG1 / KD of variant;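 further: relative to parent M103205H795-SG1 carrying the SG1 human heavy chain constant region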
Description: as §1

[14] = molecular target: T8, cynomolgus monkey FcγRIIIaS …; assay: SPR (BIACORE); KD of parent SG1 / KD of variant
Description: as §1

[15] = molecular target: T5, human FcγRIIaH extracellular domain, …; assay: SPR (BIACORE); KD of parent SG1 / KD of variant
Description: as §1

[16] = molecular target: T6, human FcγRIIaR extracellular domain, …; assay: SPR (BIACORE); KD of parent SG1 / KD of variant
Description: as §1

[17] = molecular target: T7, human FcγRIIb extracellular domain, …; assay: SPR (BIACORE); KD of parent SG1 / KD of variant
Description: as §1

[18] = molecular target: T9, human FcγRIIIaV extracellular domain, …; assay: SPR (BIACORE); KD of parent SG1 / KD of variant
Description: as §1

Row | Kd [1] | Kd [2] | Kd [3] | Kd [4] | Kd [5] | Kd [6] | Kd [7] | Kd [8] | Kd [9] | KD fold (SG1 = 1) [10] | KD fold (SG1 = 1) [11] | KD fold (SG1 = 1) [12] | KD fold (SG1 = 1) [13] | KD fold (SG1 = 1) [14] | KD fold (SG1 = 1) [15] | KD fold (SG1 = 1) [16] | KD fold (SG1 = 1) [17] | KD fold (SG1 = 1) [18] | Binder
1 | 1200 nM | 1500 nM | 2100 nM | 530 nM | 5800 nM | 690 nM | 1200 nM | 680 nM | 14000 nM | 3 fold | 3.2 fold | 3.1 fold | 5.3 fold | 0.07 fold | 1.4 fold | 0.8 fold | 5.6 fold | 0.04 fold | M103240H795-SG1071 / M103202L1045-SK1 (antibody, CH with G236N/H268D/Q295L/Q311R/A330K/D413K/M428L/N434A/Y436T/Q438R/S440E against SG1 (EU numbering); also called MS1032LO19-SG1071) heavy: QVQLVESGGGLVQPGGSLRLSCAVSGIDLSHDDISWVRQAPGKGLEWVSIISYAGSTYYASWAKGRLTISKDTSKNQVVLTMTNMDPVDTATYYCARGVPAYSHGGDLWGQGTLVTVSSASTKGPSVFPLAPSSKSTSGGTAALGCLVKDYFPEPVTVSWNSGALTSGVHTFPAVLQSSGLYSLSSVVTVPSSSLGTQTYICNVNHKPSNTKVDKKVEPKSCDKTHTCPPCPAPELLNGPSVFLFPPKPKDTLMISRTPEVTCVVVDVSDEDPEVKFNWYVDGVEVHNAKTKPREELYNSTYRVVSVLTVLHRDWLNGKEYKCKVSNKALPKPIEKTISKAKGQPREPQVYTLPPSREEMTKNQVSLTCLVKGFYPSDIAVEWESNGQPENNYKTTPPVLDSDGSFFLYSKLTVKKSRWQQGNVFSCSVLHEALHAHTTRKELSLSP light: DIVMTQSPATLSLSPGERATLSCTTSQSVYHENWLSWFQQKPGQPPKLLIYWASTLAYGVPSRFSGSGSGTDFTLTISSLQPEDAATYYCAGGYGGGRYAFGQGTKVEIKRTVAAPSVFIFPPSDEQLKSGTASVVCLLNNFYPREAKVQWKVDNALQSGNSQESVTEQDSKDSTYSLSSTLTLSKADYEKHKVYACEVTHQGLSSPVTKSFNRGEC
2 | 700 nM | 680 nM | 1100 nM | 160 nM | 1400 nM | 450 nM | 540 nM | 380 nM | 4500 nM | 5.4 fold | 6.1 fold | 6.2 fold | 11.1 fold | 0.19 fold | 2.2 fold | 1.8 fold | 10.2 fold | 0.18 fold | M103240H795-SG1074 / M103202L1045-SK1 (antibody, CH with G236N/H268D/Q295L/Q311R/K326T/A330K/P343R/M428L/N434A/Y436T/Q438R/S440E against SG1 (EU numbering); also called MS1032LO19-SG1074) heavy: QVQLVESGGGLVQPGGSLRLSCAVSGIDLSHDDISWVRQAPGKGLEWVSIISYAGSTYYASWAKGRLTISKDTSKNQVVLTMTNMDPVDTATYYCARGVPAYSHGGDLWGQGTLVTVSSASTKGPSVFPLAPSSKSTSGGTAALGCLVKDYFPEPVTVSWNSGALTSGVHTFPAVLQSSGLYSLSSVVTVPSSSLGTQTYICNVNHKPSNTKVDKKVEPKSCDKTHTCPPCPAPELLNGPSVFLFPPKPKDTLMISRTPEVTCVVVDVSDEDPEVKFNWYVDGVEVHNAKTKPREELYNSTYRVVSVLTVLHRDWLNGKEYKCKVSNTALPKPIEKTISKAKGQRREPQVYTLPPSREEMTKNQVSLTCLVKGFYPSDIAVEWESNGQPENNYKTTPPVLDSDGSFFLYSKLTVDKSRWQQGNVFSCSVLHEALHAHTTRKELSLSP light: DIVMTQSPATLSLSPGERATLSCTTSQSVYHENWLSWFQQKPGQPPKLLIYWASTLAYGVPSRFSGSGSGTDFTLTISSLQPEDAATYYCAGGYGGGRYAFGQGTKVEIKRTVAAPSVFIFPPSDEQLKSGTASVVCLLNNFYPREAKVQWKVDNALQSGNSQESVTEQDSKDSTYSLSSTLTLSKADYEKHKVYACEVTHQGLSSPVTKSFNRGEC
